Consider 10 proteins from publication doi:10.1101/2023.04.12.536520, “Structural bases for the Charcot–Marie–Tooth disease induced by single amino acid substitutions of myelin protein zero” (bioRxiv, 2023).

Changes are numbered by the printed parent chain. In names and notes the source's numbering stands.

The chains are these.
B1: human MPZ-ECD without a histidine-tag (ECD) (domain or fragment)
chain: MGIVVYTDREVHGAVGSRVTLHCSFWSSEWVSDDISFTWRYQPEGGRDAISIFHYAKGQPYIDEVGTFKERIQWVGDPRWKDGSIVIHNLDYSDNGTFTCDVKNPPDIVGKTSQVTLYVFEKV
notes: two artificial amino acids at the N-terminus; myelin protein zero (MPZ, P0), human, extracellular domain I1 through V121; I1 is residue 30 of the precursor P25189; Non-glycosylated; also called hMPZ-ECD
B2: ECD-His H52R variant (domain or fragment, human)
chain: MGIVVYTDREVHGAVGSRVTLHCSFWSSEWVSDDISFTWRYQPEGGRDAISIFRYAKGQPYIDEVGTFKERIQWVGDPRWKDGSIVIHNLDYSDNGTFTCDVKNPPDIVGKTSQVTLYVFEKVPTR
notes: two artificial amino acids at the N-terminus; myelin protein zero (MPZ, P0), human, extracellular domain I1 through V121; I1 is residue 30 of the precursor P25189; linker between the ECD and the His6-tag; DSS-related substitution at the trans interface; not shown: His6, C-terminal, kept
B3: ECD-His A47V variant (domain or fragment, human)
chain: B2 chain with A49V, R54H
notes: two artificial amino acids at the N-terminus; myelin protein zero (MPZ, P0), human, extracellular domain I1 through V121; I1 is residue 30 of the precursor P25189; linker between the ECD and the His6-tag; CMT2-related substitution at the trans interface; not shown: His6, C-terminal, kept
B4: ECD-His R38A variant (domain or fragment, human)
chain: B2 chain with R40A, R54H
notes: two artificial amino acids at the N-terminus; myelin protein zero (MPZ, P0), human, extracellular domain I1 through V121; I1 is residue 30 of the precursor P25189; linker between the ECD and the His6-tag; trans interface substitution; not shown: His6, C-terminal, kept
B5: ECD-His D46V variant (domain or fragment, human)
chain: B2 chain with D48V, R54H
notes: as for B3
B6: ECD-His E68V variant (domain or fragment, human)
chain: B2 chain with R54H, E70V
notes: two artificial amino acids at the N-terminus; myelin protein zero (MPZ, P0), human, extracellular domain I1 through V121; I1 is residue 30 of the precursor P25189; linker between the ECD and the His6-tag; CMT2-related substitution at the cis interface; not shown: His6, C-terminal, kept
B7: ECD-His D32G variant (domain or fragment, human)
chain: B2 chain with D34G, R54H
notes: two artificial amino acids at the N-terminus; myelin protein zero (MPZ, P0), human, extracellular domain I1 through V121; I1 is residue 30 of the precursor P25189; linker between the ECD and the His6-tag; CMT2-related substitution at the head-to-head interface; not shown: His6, C-terminal, kept
B8: ECD-His D32N variant (domain or fragment, human)
chain: B2 chain with D34N, R54H
notes: two artificial amino acids at the N-terminus; myelin protein zero (MPZ, P0), human, extracellular domain I1 through V121; I1 is residue 30 of the precursor P25189; linker between the ECD and the His6-tag; CMT1B-related substitution at the head-to-head interface; the recombinant protein was non-glycosylated; not shown: His6, C-terminal, kept
B9: ECD-His R45A variant (domain or fragment, human)
chain: B2 chain with R47A, R54H
notes: as for B4
B10: human MPZ-ECD with a C-terminal histidine-tag (ECD-His), wild type (domain or fragment)
chain: B2 chain with R54H
notes: two artificial amino acids at the N-terminus; myelin protein zero (MPZ, P0), human, extracellular domain I1 through V121; I1 is residue 30 of the precursor P25189; linker between the ECD and the His6-tag; Non-glycosylated; also called hMPZ-ECD-His; WT; not shown: His6, C-terminal, kept

The first series deals with the molecule itself. Description: SEC; free ECD or ECD-His variants; HiLoad Superdex 200 16/600 (Fig. 4A-C) or Superdex 200 Increase 10/300 (Fig. 3, Fig. S1); standard buffer (20 mM Tris-HCl pH 7.4, 100 mM NaCl); 4 °C; 8-mer to monomers. (Size exclusion chromatography separates by hydrodynamic size, large species first.)
As a reminder, the stoichiometry N is a count of units in the complex or per binding partner. On to B1, for which the “stoichiometry N” value came to 8.

In the case of B2, the “stoichiometry N” value is 8. With B3, the “stoichiometry N” value was found to be 8.

As to B4, the “stoichiometry N” value came out at 8. Take B5: the “stoichiometry N” value stood at 8. As for B6, the “stoichiometry N” value worked out at 8. B7: the “stoichiometry N” value came out at 8. Take B8: the “stoichiometry N” value came to 8. Same read-out and setting: under B9 stands 8.

The next series deals with the molecule itself. Description: SEC-MALS; ECD-His injected at 52 µM; Superdex 200 Increase 10/300 GL; standard buffer (20 mM Tris-HCl pH 7.4, 100 mM NaCl); room temperature; 8-mer to monomers.
In the case of B10, the “stoichiometry N” value worked out at 8.
